Experimental data reported in patent US20220204627A1 (WILLIAM ROBERT ARATHOON LIVING TRUST DATED AUGUST 29 2016, published 2022).

Key:
[1] = molecular target: T1, human CD47 on cells (human, UniProt Q08722 19-323); assay: flow cytometry on 293T_ABCB1_OX cells (anti-CD47 antibody; CD47 is endogenous on 293T cells); 293T_ABCB1_OX cells, endogenous CD47
T1 construct: also called KT14 (target name); leukocyte surface antigen CD47

[2] = molecular target: T1, human CD47 on cells; assay: flow cytometry on human red blood cells (h408 RBC), Alexa Fluor 647 channel
[3] = molecular target: T2, human CD47-Fc fusion protein (R&D systems) (human, UniProt Q08722 19-141); assay: ELISA, plate coated with human CD47-Fc; parameters: Bmax: unit not given here
T2 construct: Bought (R&D systems); also called Fc-tagged CD47; not shown: Fc part of the bought fusion protein

[4] = molecular target: T3, cynomolgus CD47 on erythrocytes (cynomolgus, UniProt A0A5F8AK49 19-323 (rhesus entry)); assay: flow cytometry on cynomolgus red blood cells (cy807 RBC), Alexa Fluor 647 channel
T3 construct: whole, on cells; also called cynomolgus RBCs

[5] = molecular target: T4, EGFR on 293T cells overexpressing EGFR (UniProt P00533 25-1210, limits assumed); assay: FACS on 293T-EGFR OX cells
T4 construct: whole, on cells

[6] = molecular target: T4, EGFR on 293T cells overexpressing EGFR; assay: FACS on 293T cells overexpressing EGFR

Row | EC50 [1] | R4 (percent of red blood cells in the positive gate R4) [2] | Bmax [3] | Kd [3] | R4 (percent of red blood cells in the positive gate R4) [4] | EC50 [5] | EC50 [6] | Binder
1 | 0.3 nM | 99.9% | 2.78 | 0.00197 nM | 99.8% | – | – | anti-CD47 antibody 5F9 (antibody, human IgG1, V domains shown, Variable regions cloned on human IgG1 / human kappa constant regions; also called 5F9/5F9; KT14) VH: QVQLVQSGAEVKKPGASVKVSCKASGYTFTNYNMHWVRQAPGQRLEWMGTIYPGNDDTSYNQKFKDRVTITADTSASTAYMELSSLRSEDTAVYYCARGGYRAMDYWGQGTLVTVSS VL: DIVMTQSPLSLPVTPGEPASISCRSSQSIVYSNGNTYLGWYLQKPGQSPQLLIYKVSNRFSGVPDRFSGSGSGTDFTLKISRVEADVGVYYCFQGSHVPYTFGQGTKLEIK
2 | – | – | – | – | – | 0.13 nM | 0.044 nM | anti-EGFR antibody necitumumab (antibody, human IgG1, kappa, V domains shown, Heavy chain copied as printed in T0103; also called KT3-2) VH: QVQLQESGPGLVKPSQTLSLICTVSGGSISSGDYYWSWIRQPPGKGLEWIGYIYYSGSTDYNPSLKSRVTMSVDTSKNQFSLKVNSVTAADTAVYYCARVSIFGVGTFDYWGQGTLVTVSS VL: EIVMTQSPATLSLSPGERATLSCRASQSVSSYLAWYQQKPGQAPRLLIYDASNRATGIPARFSGSGSGTDFTLTISSLEPEDFAVYYCHQYGSTPLTFGGGTKAEIKR
